In assay [1] the target is T1, hFcRn with a His-tag (human, UniProt P55899 24-297; P61769 21-119).
T1 construct: It may be the same product as m1; also called huFcRn (His tagged molecule, BPS); not shown: His-tag
The experiment in a line: BLI (Octet), His-hFcRn on Ni-NTA biosensor, Affimer 40 nM, pH 7.4. On the procedure:
(§1) A BLI (Bio-Layer Interferometry)-based binding assay was performed for AFFIMER® screening in which the affinity to FcRn varies depending on the pH. hFcRn with a His-tag was fixed to a Ni-NTA biosensor. Thereafter, in the hFcRn and the AFFIMER® candidate group, Ni²⁺ not bound to the hFcRn was blocked using His-SQT-gly with a high concentration, in which reactivity is absent. Then, the AFFIMER® candidate group diluted to the same concentration was reacted with the hFcRn. All affimers were analyzed at pH 6.0 and pH 7.4, and KD was determined with a 1:1 binding model.
(Biolayer interferometry detects binding as a change in optical thickness at a sensor tip.)

Assay [2] addresses T1, hFcRn with a His-tag. The experiment in a line: BLI (Octet); ratio of KD at pH 7.4 to KD at pH 6.0. How it is done: as §1
For assay [3], the target named is T2, Hu FcRn (BPS Bioscience) (human, UniProt P55899 24-297; P61769 21-119).
T2 construct: Bought recombinant protein coated on ELISA plates; also called human FcRn; human neonatal Fc receptor
T2 sequence (P55899 24-297 limits assumed, chain 1 of 2): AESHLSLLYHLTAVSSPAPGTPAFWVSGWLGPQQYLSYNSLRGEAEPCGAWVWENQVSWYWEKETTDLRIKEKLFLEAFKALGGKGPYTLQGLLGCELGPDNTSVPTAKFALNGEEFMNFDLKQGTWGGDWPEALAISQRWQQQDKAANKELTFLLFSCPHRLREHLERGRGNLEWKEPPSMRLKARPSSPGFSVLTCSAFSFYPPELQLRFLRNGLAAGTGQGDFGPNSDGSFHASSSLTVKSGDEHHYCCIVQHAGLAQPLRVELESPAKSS
T2 sequence (P61769 21-119 limits assumed, chain 2 of 2): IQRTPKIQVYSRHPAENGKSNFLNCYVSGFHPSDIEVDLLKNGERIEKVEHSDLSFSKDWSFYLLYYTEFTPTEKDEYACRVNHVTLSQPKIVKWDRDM
The experiment in a line: optimized ELISA on FcRn, pH 6.

For assay [4], the target named is T1, hFcRn with a His-tag. The experiment in a line: BLI (Octet), His-hFcRn on Ni-NTA biosensor, Affimer 40 nM, pH 6.0. How it is done:
as §1

Assay [5] has as its target T1, hFcRn with a His-tag. Briefly: BLI (Octet), His-hFcRn on Ni-NTA biosensor, Affimer 40 nM, pH 7.4, 1:1 model. On the procedure: as §1
Assay [6] addresses T1, hFcRn with a His-tag. The experiment in a line: BLI (Octet), His-hFcRn on Ni-NTA biosensor, Affimer 40 nM, pH 6.0, 1:1 model. On the procedure: as §1
The target in assay [7] is T2, Hu FcRn (BPS Bioscience). Briefly: optimized ELISA on FcRn, pH 7.4. For orientation: ELISA stands for enzyme-linked immunosorbent assay.
Assay [8] concerns the target T2, Hu FcRn (BPS Bioscience). The experiment in a line: ELISA, huFcRn coated, pH 6. How it is done: The binding of AFFIMER® to Hu-FcRn was evaluated by enzyme linked immunosorbent assay (ELISA) in 384 well plate format. Hu FcRn (BPS Bioscience) was coated at 5 μg/ml on the plate in 40 mM MES, pH 6. Plates were washed 3 times with 100 μl of washing buffer (PBS, Tween 20 0.05%, pH 6) with a plate washer and saturated with Casein 5% (Sigma) in MES pH6 for 60 minutes at room temperature (25±1° C.). Plates were washed as described previously. AFFIMER® and negative controls (mAb anti hFcRn (clone ADM31), negative controls) were then diluted in duplicate, and loaded on the plate for 90 minutes at room temperature (25±1° C.). Plates were washed 3 times as described previously. Biotinylated polyclonal antibody anti Cystatin (R&D Systems) was then diluted in dilution Buffer (1% casein, 0.05% Tween 20, and 8 mM MES. It is in pH6) and incubated 60 minutes at room temperature (25±1° C.). Plates were washed 3 times as described previously and Streptavidin HRP (N200, thermo-Fisher) was incubated for 30 minutes at room temperature (25±1° C.). Plates were washed and the substrate (TMB, Pierce Thermo-Scientific) was added in the plate for 8±1 minute. The reaction was stopped using an acidic solution and plates were read at 450-630 nm. The EC50 was then calculated using the interpolated non-linear four-parameters standard curve (Table 4).

The target in assay [9] is T2, Hu FcRn (BPS Bioscience). Briefly: ELISA, huFcRn coated, purified Affimer, pH 6. How it is done:
The binding of AFFIMER® to hu-FcRn was evaluated by enzyme linked immunosorbent assay (ELISA) in 384 well plate format. Hu FcRn (BPS Bioscience) was coated at 5 μg/ml on the plate in 40 mM MES, pH 6. Plates were washed 3 times with 100 ul of washing buffer (PBS, Tween 20 0.05%, pH 6) with a plate washer and saturated with Casein 5% (Sigma) in MES pH 6 for 60 minutes at room temperature (25±1° C.). Plates were washed as described previously. AFFIMER® and negative controls (mAb anti hFcRn (clone ADM31), negative controls) were then diluted in duplicate, and loaded on the plate for 90 minutes at room temperature (25±1° C.). Plates were washed 3 times as described previously. Biotinylated polyclonal antibody anti Cystatin (R&D Systems) was then diluted in dilution buffer (1% casein, 0.05% Tween 20, and 8 mM MES, pH 6) and incubated 60 minutes at room temperature (25±1° C.). Plates were washed 3 times as described previously and Streptavidin HRP (N200, Thermo-Fisher) was incubated for 30 minutes at room temperature (25±1° C.). Plates were washed and the substrate (TMB, Pierce Thermo-Scientific) was added in the plate for 8±1 minute. The reaction was stopped using an acidic solution and plates were read at 450-630 nm. The EC₅₀ was then calculated using the interpolated non-linear four-parameters standard curve (FIGS. 5A-5B and Table 5A).

T1 sequence (P55899 24-297 limits assumed, chain 1 of 2): as the sequence (P55899 24-297 limits assumed, chain 1 of 2) above
T1 sequence (P61769 21-119 limits assumed, chain 2 of 2): as the sequence (P61769 21-119 limits assumed, chain 2 of 2) above

B1: FcRn-109 (designed binder)
chain: MIPRGLSEAKPATPEIQEIVDKVKPQLEEKTNETYGKLEAVQYKTQVLARPHNRDSHRSTNYYIKVRAGDNKYMHLKVFNGPDRKHRKHWHADRVLTGYQVDKNKDDELTGFHHHHHH
notes: AFFIMER (stefin A variant)
What is called EC50 is the concentration at which the effect is half-maximal. By Kd is commonly meant the free concentration of one partner at which half of the binding sites on the other are occupied at equilibrium, for simple one-to-one binding. The low end stands for a tighter complex, the high end for a looser complex. For B1, the Response stood at 0.602 in assay [1] and 1.16 in assay [4]. Besides, the “pH 7.4/pH 6.0 (KD ratio)” value in [2] came out at 6.6. Besides, the EC50 in [3] came to 570 nM; in [7], 15700 nM. Further, the Kd in assay [5] was 61.2 nM; in assay [6], 9.27 nM.

B2: FcRn-16 (designed binder)
chain: MIPRGLSEAKPATPEIQEIVDKVKPQLEEKTNETYGKLEAVQYKTQVLAKHHHHKHQHSTNYYIKVRAGDNKYMHLKVFNGPVFLHNESHQADRVLTGYQVDKNKDDELTGFHHHHHH
notes: AFFIMER (stefin A variant)
For the molecule B2, the Response in assay [1] turned out to be 0.631; in [4], 1.07. Besides, the 50% effective concentration (EC50) stood at 1020 nM in [3] and 48600 nM in assay [7]. In addition, the Kd in assay [5] came out at 83.3 nM; in [6], 20.5 nM.

B3: FcRn-88 (designed binder)
chain: MIPRGLSEAKPATPEIQEIVDKVKPQLEEKTNETYGKLEAVQYKTQVLAHHTKHHSRWSTNYYIKVRAGDNKYMHLKVFNGPVNHISHAPIADRVLTGYQVDKNKDDELTGFHHHHHH
notes: AFFIMER (stefin A variant)
Consider B3, for which the Response was found to be 0.71 in assay [1] and 1.12 in [4]. In assay [2], the “pH 7.4/pH 6.0 (KD ratio)” value turned out to be 4.4. Further, the EC50 in assay [3] was found to be 967 nM; in assay [7] it was 23300 nM. The Kd in assay [5] came to 82.8 nM; in assay [6] it was 18.7 nM.

B4: FcRn-12 (designed binder)
chain: MIPRGLSEAKPATPEIQEIVDKVKPQLEEKTNETYGKLEAVQYKTQVLAKVKTHDHQRSTNYYIKVRAGDNKYMHLKVFNGPIHQHHSQDWADRVLTGYQVDKNKDDELTGFHHHHHH
notes: AFFIMER (stefin A variant)
On to B4, for which the Response was found to be 0.582 in [1] and 0.836 in assay [4]. Besides, the “pH 7.4/pH 6.0 (KD ratio)” value in assay [2] came to 4.3. Besides, the EC50 worked out at 262 nM in assay [3] and 15700 nM in [7]. The Kd in [5] was 123 nM; in assay [6], 28.4 nM.

B5: FcRn-18 (designed binder)
chain: MIPRGLSEAKPATPEIQEIVDKVKPQLEEKTNETYGKLEAVQYKTQVLAETPHERHKTSTNYYIKVRAGDNKYMHLKVFNGPKRWLKHHAHADRVLTGYQVDKNKDDELTGFHHHHHH
notes: AFFIMER (stefin A variant)
Consider B5, for which the figures for the Response in assay [1] and in [4] were 0.794 and 1.2, respectively. In addition, the half-maximal effective concentration (EC50) worked out at 327 nM in assay [3] and 19700 nM in assay [7]. In addition, the Kd in assay [5] came to 65 nM; in assay [6], 16 nM.

B6: FcRn-15 (designed binder)
chain: MIPRGLSEAKPATPEIQEIVDKVKPQLEEKTNETYGKLEAVQYKTQVLAHNHRHYSKGSTNYYIKVRAGDNKYMHLKVFNGPAFNDGAVFIADRVLTGYQVDKNKDDELTGFHHHHHH
notes: also called LGC01-15
B6 displayed an EC50 in assay [8] of 74.1 nM.

B7: FcRn-125 (designed binder)
chain: MIPRGLSEAKPATPEIQEIVDKVKPQLEEKTNETYGKLEAVQYKTQVLADHRPRHPKHSTNYYIKVRAGDNKYMHLKVFNGPAHKHHLGFKADRVLTGYQVDKNKDDELTGFHHHHHH
notes: AFFIMER (stefin A variant)
On to B7, for which the EC50 in [9] turned out to be 187 nM.

B8: FcRn-120 (designed binder)
chain: MIPRGLSEAKPATPEIQEIVDKVKPQLEEKTNETYGKLEAVQYKTQVLAKHKYHHTGHSTNYYIKVRAGDNKYMHLKVFNGPGQIHKVRSTADRVLTGYQVDKNKDDELTGFHHHHHH
notes: AFFIMER (stefin A variant)
Take B8: the response in assay [9] was half-maximal at 50.5 nM (EC50).

B9: FcRn-48 (designed binder)
chain: MIPRGLSEAKPATPEIQEIVDKVKPQLEEKTNETYGKLEAVQYKTQVLAKPKYHHHDISTNYYIKVRAGDNKYMHLKVFNGPGHHAKPHRWADRVLTGYQVDKNKDDELTGFHHHHHH
notes: AFFIMER (stefin A variant)
Take B9: the Response in assay [1] worked out at 0.803; in assay [4], 1.44. Besides, the “pH 7.4/pH 6.0 (KD ratio)” value in assay [2] worked out at 6.8. Besides, the figures for the EC50 in assay [3] and in [7] were 1500 nM and 79900 nM, respectively. Further, the figures for the Kd in assay [5] and in assay [6] were 59.3 nM and 8.76 nM, respectively.

B10: FcRn-176 (designed binder)
chain: MIPRGLSEAKPATPEIQEIVDKVKPQLEEKTNETYGKLEAVQYKTQVLAGRHHESHKSSTNYYIKVRAGDNKYMHLKVFNGPFQHKLHKHHADRVLTGYQVDKNKDDELTGFHHHHHH
notes: AFFIMER (stefin A variant)
For the molecule B10, the Response was found to be 0.595 in assay [1] and 1.02 in [4]. The “pH 7.4/pH 6.0 (KD ratio)” value in [2] was 5.5. Moreover, the EC50 in assay [3] turned out to be 4480 nM; in assay [7] it was 78900 nM. The results for the Kd in [5] and in assay [6] were 57.9 nM and 10.5 nM, respectively.
